The values that follow come from paper PMC6302171.

The experiment deals with GFP-profilin-1 (UniProt P07737). The experiment can be described thus: co-immunoprecipitation, densitometric analysis of immunoblots. Particulars: HEK293 cells; cell lysate (1 mg); three independent experiments; parent: est. 6.8; read off a plot. In general terms: Immunoblotting shows a protein as a band on a membrane.
Chain of GFP-profilin-1 (P07737 2-140): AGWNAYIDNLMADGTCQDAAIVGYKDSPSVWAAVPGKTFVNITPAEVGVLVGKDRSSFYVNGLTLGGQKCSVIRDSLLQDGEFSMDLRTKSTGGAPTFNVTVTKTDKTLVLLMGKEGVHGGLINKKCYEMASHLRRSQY

Chain of 3×FLAG-CLIC4 WT, Q9Y696 C35A (Q9Y696 whole entry C35A): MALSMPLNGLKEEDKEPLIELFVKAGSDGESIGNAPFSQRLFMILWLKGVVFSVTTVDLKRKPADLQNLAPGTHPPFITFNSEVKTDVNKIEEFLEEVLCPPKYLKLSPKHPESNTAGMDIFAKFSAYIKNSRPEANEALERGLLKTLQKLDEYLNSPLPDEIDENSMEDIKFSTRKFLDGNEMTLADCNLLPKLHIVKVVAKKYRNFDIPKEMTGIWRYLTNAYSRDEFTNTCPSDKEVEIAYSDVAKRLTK

For the substance 3×FLAG-CLIC4 WT, Q9Y696 C35A, the response came to 2 A.U.
